Results as given in the Human Domainome abundance scans (Beltran et al. 2025).
± gives the uncertainty stated by the source.

Test: abundance fitness (aPCA) (normalised: wild type 0, dead -1); higher = more abundant; growth selection in yeast, the domain comes from the species named
Details: Homo sapiens

Compared with “DnaJ homolog subfamily B member 1 K35T, P25685”, “DnaJ homolog subfamily B member 1 E19A, P25685” is higher in abundance fitness: -0.414 ± 0.095 for the first, 0.022 ± 0.08 for the second.

“DnaJ homolog subfamily B member 1 Q7C, P25685” and “DnaJ homolog subfamily B member 1 A41N, P25685” are within error of each other in abundance fitness: 0.031 ± 0.13 for the first, -0.164 ± 0.17 for the second.

“DnaJ homolog subfamily B member 1 I63G, P25685” and “DnaJ homolog subfamily B member 1 G40I, P25685” are within error of each other in abundance fitness: -0.003 ± 0.089 for the first, -0.026 ± 0.13 for the second.

“DnaJ homolog subfamily B member 1 Y31H, P25685” and “DnaJ homolog subfamily B member 1 K35Y, P25685” are within error of each other in abundance fitness: -0.494 ± 0.21 for the first, -0.632 ± 0.13 for the second.

Compared with “DnaJ homolog subfamily B member 1 I48G, P25685”, “DnaJ homolog subfamily B member 1 H32F, P25685” is higher in abundance fitness: -0.615 ± 0.065 for the first, -0.139 ± 0.16 for the second.

“DnaJ homolog subfamily B member 1 E18Q, P25685” and “DnaJ homolog subfamily B member 1 A15T, P25685” are within error of each other in abundance fitness: -0.231 ± 0.083 for the first, -0.271 ± 0.078 for the second.

Going from “DnaJ homolog subfamily B member 1 D53E, P25685” to “DnaJ homolog subfamily B member 1 L29F, P25685”, the abundance fitness rises from -0.398 ± 0.12 to -0.04 ± 0.077.

“DnaJ homolog subfamily B member 1 E62M, P25685” and “DnaJ homolog subfamily B member 1 G40A, P25685” are within error of each other in abundance fitness: -0.32 ± 0.11 for the first, -0.128 ± 0.1 for the second.

“DnaJ homolog subfamily B member 1 E43C, P25685” and “DnaJ homolog subfamily B member 1 E42F, P25685” are within error of each other in abundance fitness: -0.07 ± 0.2 for the first, -0.171 ± 0.1 for the second.

Going from “DnaJ homolog subfamily B member 1 D4M, P25685” to “DnaJ homolog subfamily B member 1 I63Q, P25685”, the abundance fitness rises from -0.196 ± 0.15 to 0.098 ± 0.074.

First: DnaJ homolog subfamily B member 1 K37S, P25685
Second: DnaJ homolog subfamily B member 1 A15R, P25685
The abundance fitness of the first is higher: -0.225 ± 0.065 for the first, -0.82 ± 0.055 for the second.

“DnaJ homolog subfamily B member 1 A23C, P25685” and “DnaJ homolog subfamily B member 1 D53R, P25685” are within error of each other in abundance fitness: -0.169 ± 0.11 for the first, -0.132 ± 0.14 for the second.

“DnaJ homolog subfamily B member 1 T8F, P25685” and “DnaJ homolog subfamily B member 1 D57R, P25685” are within error of each other in abundance fitness: -0.352 ± 0.17 for the first, -0.416 ± 0.072 for the second.

Compared with “DnaJ homolog subfamily B member 1 E50V, P25685”, “DnaJ homolog subfamily B member 1 Q7S, P25685” is lower in abundance fitness: -0.085 ± 0.078 for the first, -0.286 ± 0.081 for the second.

“DnaJ homolog subfamily B member 1 S16K, P25685” and “DnaJ homolog subfamily B member 1 Y5F, P25685” are within error of each other in abundance fitness: -0.188 ± 0.12 for the first, -0.449 ± 0.16 for the second.

Going from “DnaJ homolog subfamily B member 1 D4E, P25685” to “DnaJ homolog subfamily B member 1 S56D, P25685”, the abundance fitness falls from -0.186 ± 0.19 to -0.551 ± 0.094.

“DnaJ homolog subfamily B member 1 E50G, P25685” and “DnaJ homolog subfamily B member 1 F45T, P25685” are within error of each other in abundance fitness: -0.326 ± 0.13 for the first, -0.281 ± 0.075 for the second.

First: DnaJ homolog subfamily B member 1 E43I, P25685
Second: DnaJ homolog subfamily B member 1 A23E, P25685
The abundance fitness of the first is higher: 0.109 ± 0.12 for the first, -0.149 ± 0.086 for the second.

“DnaJ homolog subfamily B member 1 R26F, P25685” and “DnaJ homolog subfamily B member 1 G40L, P25685” are within error of each other in abundance fitness: -0.032 ± 0.094 for the first, -0.188 ± 0.1 for the second.

“DnaJ homolog subfamily B member 1 A28N, P25685” and “DnaJ homolog subfamily B member 1 S56Q, P25685” are within error of each other in abundance fitness: -0.119 ± 0.12 for the first, -0.25 ± 0.14 for the second.

“DnaJ homolog subfamily B member 1 L29P, P25685” and “DnaJ homolog subfamily B member 1 Y31V, P25685” are within error of each other in abundance fitness: -0.461 ± 0.16 for the first, -0.234 ± 0.12 for the second.

Compared with “DnaJ homolog subfamily B member 1 A51Y, P25685”, “DnaJ homolog subfamily B member 1 E43W, P25685” is higher in abundance fitness: -0.576 ± 0.39 for the first, -0.043 ± 0.069 for the second.

Going from “DnaJ homolog subfamily B member 1 A51V, P25685” to “DnaJ homolog subfamily B member 1 E19L, P25685”, the abundance fitness rises from -0.915 ± 0.065 to -0.32 ± 0.069.

First: DnaJ homolog subfamily B member 1 K21C, P25685
Second: DnaJ homolog subfamily B member 1 L9W, P25685
The abundance fitness of the first is higher: -0.089 ± 0.071 for the first, -1.25 ± 0.17 for the second.

“DnaJ homolog subfamily B member 1 S56G, P25685” and “DnaJ homolog subfamily B member 1 H32S, P25685” are within error of each other in abundance fitness: 0.002 ± 0.079 for the first, 0.05 ± 0.073 for the second.

First: DnaJ homolog subfamily B member 1 I63P, P25685
Second: DnaJ homolog subfamily B member 1 K60G, P25685
The abundance fitness of the first is higher: 0.08 ± 0.11 for the first, -0.325 ± 0.073 for the second.

“DnaJ homolog subfamily B member 1 R61Q, P25685” and “DnaJ homolog subfamily B member 1 E38N, P25685” are within error of each other in abundance fitness: -0.336 ± 0.093 for the first, -0.179 ± 0.2 for the second.

Going from “DnaJ homolog subfamily B member 1 Y6P, P25685” to “DnaJ homolog subfamily B member 1 Y5S, P25685”, the abundance fitness rises from -0.589 ± 0.2 to -0.262 ± 0.1.

“DnaJ homolog subfamily B member 1 D34E, P25685” and “DnaJ homolog subfamily B member 1 K60E, P25685” are within error of each other in abundance fitness: 0.188 ± 0.33 for the first, -0.159 ± 0.14 for the second.

“DnaJ homolog subfamily B member 1 K44Q, P25685” and “DnaJ homolog subfamily B member 1 Q7F, P25685” are within error of each other in abundance fitness: -0.192 ± 0.16 for the first, 0.066 ± 0.11 for the second.

“DnaJ homolog subfamily B member 1 Y24A, P25685” and “DnaJ homolog subfamily B member 1 L55E, P25685” are within error of each other in abundance fitness: -0.686 ± 0.24 for the first, -0.752 ± 0.099 for the second.

“DnaJ homolog subfamily B member 1 E50D, P25685” and “DnaJ homolog subfamily B member 1 L11C, P25685” are within error of each other in abundance fitness: -0.074 ± 0.087 for the first, -0.018 ± 0.088 for the second.

Going from “DnaJ homolog subfamily B member 1 A49I, P25685” to “DnaJ homolog subfamily B member 1 E43G, P25685”, the abundance fitness rises from -0.304 ± 0.16 to 0.009 ± 0.074.

“DnaJ homolog subfamily B member 1 R59V, P25685” and “DnaJ homolog subfamily B member 1 L29K, P25685” are within error of each other in abundance fitness: -0.059 ± 0.071 for the first, -0.116 ± 0.08 for the second.

First: DnaJ homolog subfamily B member 1 E42R, P25685
Second: DnaJ homolog subfamily B member 1 E47P, P25685
The abundance fitness of the first is higher: 0.024 ± 0.058 for the first, -0.212 ± 0.088 for the second.

First: DnaJ homolog subfamily B member 1 V54H, P25685
Second: DnaJ homolog subfamily B member 1 I63A, P25685
The abundance fitness of the first is lower: -0.886 ± 0.19 for the first, 0.237 ± 0.097 for the second.

First: DnaJ homolog subfamily B member 1 A49R, P25685
Second: DnaJ homolog subfamily B member 1 V54G, P25685
The abundance fitness of the first is higher: 0.021 ± 0.082 for the first, -0.322 ± 0.058 for the second.

“DnaJ homolog subfamily B member 1 P33E, P25685” and “DnaJ homolog subfamily B member 1 F45N, P25685” are within error of each other in abundance fitness: -0.096 ± 0.087 for the first, -0.221 ± 0.1 for the second.

“DnaJ homolog subfamily B member 1 E38F, P25685” and “DnaJ homolog subfamily B member 1 H32N, P25685” are within error of each other in abundance fitness: -0.127 ± 0.12 for the first, 0.017 ± 0.15 for the second.

Going from “DnaJ homolog subfamily B member 1 D17A, P25685” to “DnaJ homolog subfamily B member 1 L9Q, P25685”, the abundance fitness falls from -0.072 ± 0.096 to -0.649 ± 0.095.

“DnaJ homolog subfamily B member 1 D57K, P25685” and “DnaJ homolog subfamily B member 1 D53K, P25685” are within error of each other in abundance fitness: -0.123 ± 0.13 for the first, -0.067 ± 0.11 for the second.

“DnaJ homolog subfamily B member 1 R13W, P25685” and “DnaJ homolog subfamily B member 1 R61N, P25685” are within error of each other in abundance fitness: -0.434 ± 0.08 for the first, -0.425 ± 0.1 for the second.

“DnaJ homolog subfamily B member 1 I63C, P25685” and “DnaJ homolog subfamily B member 1 G40R, P25685” are within error of each other in abundance fitness: -0.083 ± 0.1 for the first, -0.041 ± 0.088 for the second.

Going from “DnaJ homolog subfamily B member 1 S56P, P25685” to “DnaJ homolog subfamily B member 1 L9V, P25685”, the abundance fitness rises from -0.99 ± 0.1 to -0.697 ± 0.17.

First: DnaJ homolog subfamily B member 1 R13A, P25685
Second: DnaJ homolog subfamily B member 1 A23F, P25685
The abundance fitness of the first is higher: -0.148 ± 0.081 for the first, -0.816 ± 0.1 for the second.

“DnaJ homolog subfamily B member 1 N36E, P25685” and “DnaJ homolog subfamily B member 1 E47C, P25685” are within error of each other in abundance fitness: -0.174 ± 0.084 for the first, -0.218 ± 0.095 for the second.

First: DnaJ homolog subfamily B member 1 I20P, P25685
Second: DnaJ homolog subfamily B member 1 D57I, P25685
The abundance fitness of the first is lower: -1.26 ± 0.17 for the first, -0.637 ± 0.22 for the second.

“DnaJ homolog subfamily B member 1 N36S, P25685” and “DnaJ homolog subfamily B member 1 D53N, P25685” are within error of each other in abundance fitness: 0.079 ± 0.06 for the first, 0.035 ± 0.12 for the second.

“DnaJ homolog subfamily B member 1 G14F, P25685” and “DnaJ homolog subfamily B member 1 E19C, P25685” are within error of each other in abundance fitness: -0.446 ± 0.2 for the first, -0.291 ± 0.12 for the second.

Going from “DnaJ homolog subfamily B member 1 K60I, P25685” to “DnaJ homolog subfamily B member 1 A28S, P25685”, the abundance fitness rises from -0.654 ± 0.16 to -0.172 ± 0.11.

Going from “DnaJ homolog subfamily B member 1 L55H, P25685” to “DnaJ homolog subfamily B member 1 I48A, P25685”, the abundance fitness rises from -0.686 ± 0.14 to -0.108 ± 0.079.

For “DnaJ homolog subfamily B member 1 Y52T, P25685”, the abundance fitness was -0.333 ± 0.089.
